Experimental data as given in paper PMC6245143, “Small-animal SPECT/CT imaging of cancer xenografts and pulmonary fibrosis using a ^99mTc-labeled integrin αvβ6-targeting cyclic peptide with improved in vivo stability” (Biophysics Reports, 2018).
Where two headings read alike, the source gives them in different places. Each block holds one molecule with its values, some of them ahead of it. Where a SMILES comes first, the peptide text is derived from it. Bridges are numbered along the chain shown (N, C = ends). Where no end group is shown, it is not given here. The star is where a group is joined. HYNIC = NNc1ccc(C(=O)*)cn1

Experiments:
[1] = mouse; cited from earlier work
Text: Due to the critical role of integrin αvβ6 in tumorigenesis and fibrogenesis, it has emerged as an appealing target for diagnostic imaging, prognosis evaluation, and therapeutic responses monitoring (Agarwal [2014]; Cantor et al. [2015]; Saini et al. [2015]; Yang et al. [2015]). Therefore, noninvasive and quantitative imaging of integrin αvβ6 expression by molecular imaging techniques would be of great potential for better management of these diseases. Previous studies have focused on the development of positron emission tomography (PET) and single-photon emission computed tomography (SPECT) ra ...

[2] = Biodistribution in BxPC-3 tumor-bearing nude mice; conditions: female, BALB/c nude, in vivo, iv, total radioactivity; for tissue uptake at 1 h: 1 h after injection
Procedure: (§1) All animal experiments were performed in accordance with the guidelines of Peking University Animal Care and Use Committee. To establish the BxPC-3 subcutaneous tumor model, BxPC-3 cells (1 × 10^7 in 100 μl of PBS) were inoculated subcutaneously into the right front flanks of female BALB/c nude mice. The animals were used for in vivo studies when the tumor size reached 200–300 mm^3 (3–4 weeks after inoculation). For the pulmonary fibrosis mouse model, BLM (1.5 units/kg, 50 μl in PBS) or PBS (50 μl; as a vehicle control) was administered once into the C57/BL6 mice by intratracheal injection. On day 21 (based on pilot studies), the mice with well-established pulmonary fibrosis were used for SPECT/CT imaging.
Biodistribution studies were performed using female BALB/c nude mice bearing BxPC-3 xenografts. Mice received an injection via the tail vein of 370 kBq (10 μCi) of ^99mTc–HYNIC–cHK to evaluate the distribution of the radiotracer. The blocking experiments were also performed by coinjection of ^99mTc–HYNIC–cHK with a saturating dose of the HK peptide (500 μg per mouse). At 0.5, 1, and 2 h after injection, the animals were sacrificed, and the tumors and the organs/tissues of interest were dissected and wet-weighed, and the radioactivity in the tissue was measured using a γ-counter. The results are presented as percentages of injected dose per gram of tissue (%ID/g). Values are expressed as mean ± SD (n = 4 per group).

[3] = 37 °C, 0, 0.5, 1, 2 and 4 h, radio-HPLC
Procedure: The in vitro solution stability of ^99mTc–HYNIC–cHK in fetal bovine serum (FBS) or L-cysteine was monitored by radio-HPLC.
^99mTc–HYNIC–cHK was incubated in FBS or L-cysteine (1.0 mg/mL) for 0, 0.5, 1, 2, and 4 h at 37 °C to test the in vitro solution stability. After passing through a 0.22-μm Millipore filter, the samples were analyzed by radio-HPLC.

[4] = tested on: bleomycin-induced fibrotic lungs; assay: SPECT/CT imaging of bleomycin-induced pulmonary fibrosis; format: in vivo; conditions: C57/BL6 mice, 0.5 h after injection
Procedure: as §1
(§2) Small-animal SPECT/CT scans of subcutaneous BxPC-3 tumor and pulmonary fibrosis mouse models were performed using a SPECT/CT system (NanoScan; Mediso, Budapest, Hungary). Each BxPC-3-bearing mouse was injected via tail vein with 37 MBq (1 mCi) of ^99mTc–HYNIC–cHK. At 0.5 h and 1 h after injection, the mice were anesthetized by inhalation of 2% isoflurane and imaged using the Nano-SPECT/CT camera, The SPECT and CT fusion images were obtained using the automatic fusion software (InterView Fusion; Mediso Medical Imaging Systems, Budapest, Hungary).
Each BLM- or PBS-treated mouse was administered with 37 MBq of ^99mTc–HYNIC–cHK via tail vein. […]

[5] = for degree of metabolism in blood: mouse blood, 1 mCi i.v.
Procedure: We performed the metabolism studies of ^99mTc–HYNIC–cHK using normal BALB/c mice. We analyzed the samples from both blood and urine to determine whether the radiotracer retains its chemical integrity at 0.5 h and 1 h postinjection.
The metabolic stability of ^99mTc–HYNIC–cHK was evaluated in female BALB/c normal mice. Each mouse was administered with the radiotracer at a dose of 1 mCi in 100 μl saline via intravenous injection. At 0.5 h and 1 h postinjection, the blood and urine samples were collected. The samples were centrifuged at 8000 r/min for 15 min. The supernatant was collected, filtered through a 0.22-μm Millipore filter, and then analyzed by radio-HPLC.

[6] = target: T1, integrin αvβ6-positive BxPC-3 cells (Homo sapiens, UniProt P06756+P18564); assay: Binding of ^99mTc–HYNIC–cHK to BxPC-3 cells, without or with cold peptide blocking; format: cell-based; conditions: 4 °C, 4 h
T1 construct: host or cells: BxPC-3 human pancreatic cancer cells
Procedure: The binding specificity of ^99mTc–HYNIC–cHK to integrin αvβ6 was evaluated in integrin αvβ6-positive BxPC-3 cells.
In vitro integrin αvβ6 binding specificity of ^99mTc–HYNIC–cHK was tested using the integrin αvβ6-positive BxPC-3 cells. Briefly, cells were seeded into 12-well plates and incubated overnight at 37 °C to allow adherence. After brief washing with PBS, tumor cells were incubated with 3.7 kBq ^99mTc–HYNIC–cHK with or without an excess dose of cold cHK or HK peptide at 4 °C for 4 h. Tumor cells were then washed with chilled PBS and harvested by trypsinization with 0.05% trypsin. The cell suspensions were collected and measured in a γ-counter (Wallac 1470-002, Perkin-Elmer, Finland). The cell uptake was expressed as the percent added dose (%AD). Experiments were performed twice with triplicate samples.

BxPC-3 tumors = assay: Small-animal SPECT/CT imaging of BxPC-3 cancer xenografts; format: in vivo, BALB/c nude mice; conditions: BxPC-3 tumor-bearing mice, 37 MBq i.v., blocking dose of cold HK peptide, P < 0.001
Procedure: as §1, §2

[7] = target: T2, integrin αvβ6 on BxPC-3 cells (Homo sapiens, UniProt P06756+P18564); assay: Displacement cell-binding assay with ^125I–HYK as radioligand
T2 construct: Experiments were performed on high integrin αvβ6-expressing BxPC-3 cells; host or cells: BxPC-3 human pancreatic cancer cells
Procedure: In vitro integrin αvβ6 binding affinities of cHK and HK were compared via displacement cell-binding assays (Dong et al. [2015]) using ^125I–HYK as the radioligand. ^125I–HYK was prepared by labeling HYK with Na^125I using the Iodogen method as previously reported (Liu et al. [2010]). Experiments were performed on high integrin αvβ6-expressing BxPC-3 cells. The best-fit 50% inhibitory concentration (IC50) values were calculated by fitting the data with nonlinear regression using Graph-Pad Prism (GraphPad Software, Inc.).

T1 sequence (P06756 31-889 limits assumed): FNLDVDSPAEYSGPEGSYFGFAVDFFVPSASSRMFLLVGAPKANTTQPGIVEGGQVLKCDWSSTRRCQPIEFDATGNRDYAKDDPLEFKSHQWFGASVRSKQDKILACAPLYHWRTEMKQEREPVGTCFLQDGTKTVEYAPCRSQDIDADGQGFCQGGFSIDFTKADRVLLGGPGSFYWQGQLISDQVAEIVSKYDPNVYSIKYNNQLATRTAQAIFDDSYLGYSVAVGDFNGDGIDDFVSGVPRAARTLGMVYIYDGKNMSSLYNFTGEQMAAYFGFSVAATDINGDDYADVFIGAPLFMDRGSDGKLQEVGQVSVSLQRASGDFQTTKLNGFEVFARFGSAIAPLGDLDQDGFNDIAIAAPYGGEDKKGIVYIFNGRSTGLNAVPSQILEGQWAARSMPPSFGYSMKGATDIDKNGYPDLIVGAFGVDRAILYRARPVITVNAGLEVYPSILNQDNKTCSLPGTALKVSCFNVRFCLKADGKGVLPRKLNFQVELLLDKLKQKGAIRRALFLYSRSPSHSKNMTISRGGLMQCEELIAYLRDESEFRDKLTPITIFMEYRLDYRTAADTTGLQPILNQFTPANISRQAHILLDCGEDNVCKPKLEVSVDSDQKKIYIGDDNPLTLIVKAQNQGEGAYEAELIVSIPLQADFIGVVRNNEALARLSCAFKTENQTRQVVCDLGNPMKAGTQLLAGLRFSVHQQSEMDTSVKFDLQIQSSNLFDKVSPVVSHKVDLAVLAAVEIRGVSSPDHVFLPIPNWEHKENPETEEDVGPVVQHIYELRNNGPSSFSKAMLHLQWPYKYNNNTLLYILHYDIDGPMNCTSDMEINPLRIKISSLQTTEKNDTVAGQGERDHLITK
T1 sequence (P06756 891-1048 partner limits assumed): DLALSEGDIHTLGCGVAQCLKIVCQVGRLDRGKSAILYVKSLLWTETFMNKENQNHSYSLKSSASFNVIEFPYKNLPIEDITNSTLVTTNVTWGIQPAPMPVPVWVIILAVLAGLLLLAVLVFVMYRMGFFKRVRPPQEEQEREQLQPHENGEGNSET
T1 sequence (P18564 22-788): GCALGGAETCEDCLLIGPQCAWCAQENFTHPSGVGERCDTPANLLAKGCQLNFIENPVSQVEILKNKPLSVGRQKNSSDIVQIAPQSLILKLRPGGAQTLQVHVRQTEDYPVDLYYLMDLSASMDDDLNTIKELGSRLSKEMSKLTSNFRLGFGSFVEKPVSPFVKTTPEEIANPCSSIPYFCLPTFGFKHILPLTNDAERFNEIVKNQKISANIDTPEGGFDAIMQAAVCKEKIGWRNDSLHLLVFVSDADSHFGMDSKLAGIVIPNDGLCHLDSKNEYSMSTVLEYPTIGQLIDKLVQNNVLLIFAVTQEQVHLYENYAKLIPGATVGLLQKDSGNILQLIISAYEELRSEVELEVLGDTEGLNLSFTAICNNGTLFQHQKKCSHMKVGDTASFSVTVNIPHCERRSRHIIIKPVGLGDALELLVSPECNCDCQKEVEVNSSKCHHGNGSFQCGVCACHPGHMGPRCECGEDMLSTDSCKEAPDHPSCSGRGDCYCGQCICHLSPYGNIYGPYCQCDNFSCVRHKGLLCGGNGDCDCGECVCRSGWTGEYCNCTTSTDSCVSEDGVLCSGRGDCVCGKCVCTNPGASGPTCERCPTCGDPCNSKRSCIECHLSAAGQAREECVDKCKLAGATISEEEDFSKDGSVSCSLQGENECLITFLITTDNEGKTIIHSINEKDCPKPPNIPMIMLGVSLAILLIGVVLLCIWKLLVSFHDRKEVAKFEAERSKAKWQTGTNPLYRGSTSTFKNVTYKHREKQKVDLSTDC
T2 sequence (P06756 31-889 limits assumed): as the sequence (P06756 31-889 limits assumed) above
T2 sequence (P06756 891-1048 partner limits assumed): as the sequence (P06756 891-1048 partner limits assumed) above
T2 sequence (P18564 22-788): as the sequence (P18564 22-788) above

Molecule: CC(C)C[C@H](NC(=O)[C@H](CC(=O)O)NC(=O)CNC(=O)[C@@H](N)CCCNC(=N)N)C(=O)N[C@@H](C)C(=O)N[C@H](C(=O)N[C@@H](CC(C)C)C(=O)N[C@@H](CCCNC(=N)N)C(=O)N[C@@H](CCC(N)=O)C(=O)N[C@@H](CC(C)C)C(=O)N[C@@H](C)C(=O)N[C@@H](CCC(N)=O)C(=O)N[C@@H](CCC(=O)O)C(=O)N[C@@H](CC(=O)O)C(=O)NCC(=O)N[C@H](C(=O)N[C@H](C(=O)NCC(=O)N[C@H](C(=O)N[C@@H](CCCNC(=N)N)C(=O)N[C@@H](CCCCNC(=O)c1ccc(NN)nc1)C(=O)O)C(C)C)C(C)C)C(C)C)[C@@H](C)O [^99mTc–HYNIC–HK, metal not drawn, reference compound] (H-RGDLATLRQLAQEDGVVGVRK(HYNIC)-OH; N-terminus and C-terminus assumed)
time to complete degradation in vivo after injection [1]: ≤ 30 min
tissue to tissue ratio at 0.5 h ([2]; mouse, 370 kBq): 1.82 ± 0.27
tissue uptake at 0.5 h ([2]; mouse, 370 kBq): 0.58 ± 0.09 %ID/g

Molecule: CC(C)C[C@@H]1NC(=O)[C@H](CC(=O)O)NC(=O)CNC(=O)[C@H](CCCNC(=N)N)NC(=O)[C@@H](N)CSSC[C@@H](C(=O)O)NC(=O)[C@H](CCCCNC(=O)c2ccc(NN)nc2)NC(=O)[C@H](CC(C)C)NC(=O)[C@H]([C@@H](C)O)NC(=O)[C@H](C)NC1=O [^99mTc–HYNIC–cHK, metal not drawn] (H-CRGDLATLK(HYNIC)C-OH; disulfide 1-10)
time remaining stable in the presence of L-cysteine ([3]; L-cysteine 1.0 mg/mL): more than 4 h
time remaining stable in FBS ([3]; fetal bovine serum): more than 4 h
lung uptake in PBS-treated mice (SPECT/CT) ([4]; PBS control, 37 MBq i.v.): no significant uptake
lung uptake in BLM-treated mice (SPECT/CT) ([4]; bleomycin 1.5 units/kg intratracheal, day 21, 37 MBq i.v.): evident accumulation
tissue uptake at 1 h ([2]; BxPC-3 tumors, blocking with HK peptide 500 μg per mouse, n = 4, read-out: tumor uptake with coinjection of cold HK peptide): 0.24 ± 0.04 %ID/g
tissue to tissue ratio at 0.5 h ([2]; mouse, 370 kBq, BxPC-3 tumor-bearing nude mice, 0.5 h after injection, n = 4, read-out: tumor-to-muscle (T/M) ratio): 2.99 ± 0.87
tissue uptake at 1 h ([2]; mouse, 370 kBq, BxPC-3 tumors, mean ± SD, n = 4, read-out: tumor uptake): 0.43 ± 0.09 %ID/g
tissue uptake at 2 h ([2]; mouse, 370 kBq, BxPC-3 tumors, 2 h after injection, mean ± SD, n = 4): 0.33 ± 0.16 %ID/g
tissue uptake at 0.5 h ([2]; mouse, BxPC-3 tumors, 0.5 h after injection, 370 kBq i.v., mean ± SD, n = 4, read-out: tumor uptake): 0.63 ± 0.18 %ID/g
in vivo stability compared to ^99mTc–HYNIC–HK ([5]; comparison with linear peptide-based radiotracer (Liu et al. [2014b])): much more stable in vivo
degree of metabolism in blood ([5]; 0.5 h postinjection, radio-HPLC): 9.94%
degree of metabolism in blood ([5]; 1 h postinjection, radio-HPLC): 30.09%
chemical integrity in urine ([5]; mouse urine, 0.5 h and 1 h postinjection, radio-HPLC): retained its integrity
binding of ^99mTc–HYNIC–cHK to BxPC-3 cells (cell uptake) ([6]; with excess cold HK peptide (300 μg) blocking): 0.06 ± 0.007 %AD
binding of ^99mTc–HYNIC–cHK to BxPC-3 cells (cell uptake) ([6]; with excess cold cHK peptide (300 μg) blocking): 0.03 ± 0.005 %AD
binding of ^99mTc–HYNIC–cHK to BxPC-3 cells (cell uptake) ([6]; without blocking, 3.7 kBq tracer, γ-counter, twice with triplicate samples): 0.79 ± 0.01 %AD
tumor uptake in the HK blocking group (SPECT) (BxPC-3 tumors): almost completely inhibited

Molecule: CC(C)C[C@@H]1NC(=O)[C@H](CC(=O)O)NC(=O)CNC(=O)[C@H](CCCNC(=N)N)NC(=O)[C@@H](N)CSSC[C@@H](C(=O)O)NC(=O)[C@H](CCCCN)NC(=O)[C@H](CC(C)C)NC(=O)[C@H]([C@@H](C)O)NC(=O)[C@H](C)NC1=O [cHK] (H-CRGDLATLKC-OH; disulfide 1-10)
IC50 [7]: 20.3 ± 1.17 nM

IC50 ([7]; displacement cell-binding assay, BxPC-3 cells, nonlinear regression fit, read-out: IC50, inhibition of ^125I–HYK binding to integrin αvβ6 on BxPC-3 cells): 3.55 ± 0.09 nM
Molecule: RGDLATLRQLAQEDGVVGVRK [HK, reference compound]
